We go through four molecules from US20220098306A1 (Xencor, published 2022).

First the molecules themselves.
B1: XENP34339 (bispecific antibody)
heavy 1: EVQLLESGGGLVQPGGSLRLSCAASGFTFSSYYMSWVRQAPGKGLEWVSTISESGDSTYYADSVKGRFTISRDNSKNTLYLQMNSLRAEDTAVYYCAKSGPGLRQVGFDYWGQGTLVTVSSASTKGPSVFPLAPSSKSTSGGTAALGCLVKDYFPEPVTVSWNSGALTSGVHTFPAVLQSSGLYSLSSVVTVPSSSLGTQTYICNVNHKPSDTKVDKKVEPKSCDKTHTCPPCPAPPVAGPSVFLFPPKPKDTLMISRTPEVTCVVVDVKHEDPEVKFNWYVDGVEVHNAKTKPREEEYNSTYRVVSVLTVLHQDWLNGKEYKCKVSNKALPAPIEKTISKAKGQPREPQVYTLPPSREEMTKNQVSLTCDVSGFYPSDIAVEWESDGQPENNYKTTPPVLDSDGSFFLYSKLTVDKSRWEQGDVFSCSVMHEALHNHYTQKSLSLSPGK
heavy 2: QVQLVQSGAEVKKPGASVKVSCKASGYIFTNNYMHWVRQAPGQGLEWMGIISPSVGRTAYAQKFQGRVTMTRDTSTSTVYMELSSLRSEDTAVYYCARGGGSSPRLDYWGQGTLVTVSSASTKGPSVFPLAPSSKSTSGGTAALGCLVKDYFPEPVTVSWNSGALTSGVHTFPAVLQSSGLYSLSSVVTVPSSSLGTQTYICNVNHKPSNTKVDKKVEPKSCGKPGSGKPGSQVQLVQSGAEVKKPGASVKVSCKASGYIFTNNYMHWVRQAPGQGLEWMGIISPSVGRTAYAQKFQGRVTMTRDTSTSTVYMELSSLRSEDTAVYYCARGGGSSPRLDYWGQGTLVTVSSASTKGPSVFPLAPSSKSTSGGTAALGCLVKDYFPEPVTVSWNSGALTSGVHTFPAVLQSSGLYSLSSVVTVPSSSLGTQTYICNVNHKPSNTKVDKKVEPKSCDKTHTCPPCPAPPVAGPSVFLFPPKPKDTLMISRTPEVTCVVVDVKHEDPEVKFNWYVDGVEVHNAKTKPREEQYNSTYRVVSVLTVLHQDWLNGKEYKCKVSNKALPAPIEKTISKAKGQPREPQVYTLPPSREQMTKNQVKLTCLVKGFYPSDIAVEWESNGQPENNYKTTPPVLDSDGSFFLYSKLTVDKSRWQQGNVFSCSVMHEALHNHYTQKSLSLSPGK
light: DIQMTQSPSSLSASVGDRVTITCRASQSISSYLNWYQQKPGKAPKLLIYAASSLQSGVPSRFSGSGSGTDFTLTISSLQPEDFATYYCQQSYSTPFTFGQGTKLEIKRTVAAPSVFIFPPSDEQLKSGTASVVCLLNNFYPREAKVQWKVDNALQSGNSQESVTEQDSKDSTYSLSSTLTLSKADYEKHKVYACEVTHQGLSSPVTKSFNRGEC
notes: 2+1 CLC format; also called B7H3 x CD28 bsAb in 2+1 CLC format; copies: 1 + 1 + 3
B2: XENP35611 (bispecific antibody)
heavy 1: B1 heavy 1 with Y33A, E53G
heavy 2: B1 heavy 2
light: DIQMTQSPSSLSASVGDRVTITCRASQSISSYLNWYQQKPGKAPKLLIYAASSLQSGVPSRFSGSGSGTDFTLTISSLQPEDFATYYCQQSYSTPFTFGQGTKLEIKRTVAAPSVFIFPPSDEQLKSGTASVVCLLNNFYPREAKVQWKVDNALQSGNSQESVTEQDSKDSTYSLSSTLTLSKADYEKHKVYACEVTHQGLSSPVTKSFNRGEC
notes: 2+1 CLC format; copies: 1 + 1 + 3
B3: XENP35612 (bispecific antibody)
heavy 1: B1 heavy 1 with E53G
heavy 2: B1 heavy 2
light: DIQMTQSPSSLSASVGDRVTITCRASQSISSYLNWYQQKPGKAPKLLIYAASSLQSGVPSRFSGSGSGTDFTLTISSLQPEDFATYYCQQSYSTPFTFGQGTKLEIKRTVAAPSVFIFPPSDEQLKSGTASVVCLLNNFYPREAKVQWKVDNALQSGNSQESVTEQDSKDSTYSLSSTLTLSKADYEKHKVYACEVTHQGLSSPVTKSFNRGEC
notes: as for B2
B4: XENP34336 (bispecific antibody)
heavy 1: B1 heavy 1
heavy 2: B1 heavy 2 with N32H, V55A, R57S, A59D, N264H, V287A, R289S, A291D
light: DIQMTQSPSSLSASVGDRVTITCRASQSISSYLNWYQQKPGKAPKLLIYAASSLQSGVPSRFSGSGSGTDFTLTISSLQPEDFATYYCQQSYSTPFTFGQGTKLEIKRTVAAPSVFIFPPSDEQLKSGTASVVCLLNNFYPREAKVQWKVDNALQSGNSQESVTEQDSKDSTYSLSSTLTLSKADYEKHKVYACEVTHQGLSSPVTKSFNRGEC
notes: as for B2

Residue numbers refer to the chain shown, from its start.

The target of the experiment is T1, CD28 (antigen of the affinity determinations) (human, UniProt P10747 19-152, limits assumed).
T1 construct: also called human CD28
The experiment can be described thus: binding affinity of the CD28 binding domain; method not given.
B1 showed a Kd of 77 nM. With B2 the figure was 610 nM; with B3, 270 nM; with B4, 440 nM.

Broadly, the Kd is the equilibrium constant for the complex coming apart. Lower therefore signals higher affinity.
